The chains are these.
B1: Fab fragment of antibody 17566 (Fab, V domains shown)
VH: QVTLKESGPVLVKPTETLTLTCTVSGFSFNNARMGVNWIRQPPGKALEWLAHIFSNDEKSYSTSLKSRLTISKDISKSQVVLTMTNMDPVDTATYYCARIVGYGSGWRLLGDYWGQGTLVTVSS
VL: AIQMTQSPSSLSASVGDRVTITCRASQGITNDLGWYQQKPGKAPKLLIYAASSLQSGVPSRFSGSGSGTDFTLTISSLQPEDFATYYCLQDYNYPWTFGQGTKVEIK
B2: Fab fragment of antibody 17497 (Fab, V domains shown)
VH: QVQLQESGPGLVKPSGTLSLTCAVSGGSISSTNWWSWVRQPPGKGLEWIGEISHRGSTNYNPSLKSRVTISVDKSKNQFSLKLSSVTAADTAVYYCARDPEMTLYYYYGMDVWGQGTTVTVSS
VL: DIQMTQSPSSLSASVGDRVTITCRASRGIRNDLGWYQQKPGKAPKRLIYAASSLQSGVPSRFSGSGSGTEFTLTISSLQPEDFATYYCLQHNSYPLTFGGGTKVEIK
B3: Fab fragment of antibody 17543 (Fab, V domains shown)
VH: QVTLKESGPVLVKPTETLTLTCTVSGFSLINARMGVTWIRQPPGKALEWLAHIFSNDEKSYSTSLKSRLTISKDTSKSQVVLTMTNMDPVDTATYYCARIPGYSRGWDYYYYGMDVWGQGTMVTVSS
VL: DIQMTQSPSSLSASVGDRVTITCRASQGIRNDLGWYQQKPGKAPKRLIYAASTLQSGVPSRFSGSGSGTEFTLTISSLQPEDFATYYCLQHNSYPWTFGQGTKVEIK

In this test the target is human FLT3 domain 1 Fc fusion protein (wild type) (human) (UniProt P36888). As to the kind of experiment: SPR (Carterra LSA); FLT3 D1-Fc captured on anti-human Ig Fc, Fab as analyte; mean ± SEM, n=4.
For orientation: Kd means the constant that tells how readily two partners part at equilibrium. Lower therefore signals higher affinity. A word on the koff: it is a measure of how fast the partners let go of each other. Higher therefore signals fast dissociation. As a reminder, the kon is the second-order rate constant of association. A lower kon goes with slower complex formation. B1 registered a Kd of 5.2 nM, a koff of 0.0046 s⁻¹ and an association rate constant (kon) of 890000 M⁻¹ s⁻¹.

B2 registered a Kd of 3.1 nM, a koff of 0.003 s⁻¹ and a kon of 980000 M⁻¹ s⁻¹.

Consider B3, for which the Kd came out at 19.3 nM, the koff came to 0.0099 s⁻¹ and the kon came out at 520000 M⁻¹ s⁻¹.

(Values after US20250179195A1.)
